Target: C5 (Homo sapiens, UniProt P01031)
Test: Monoclonal phage screening ELISA, human C5
Type: binding
Description: For the C5 libraries, a single round of enrichment was performed with either human or rat C5 protein. […] Phage were blocked for 30 minutes. Biotinylated antigen was added to the blocked phage at a concentration of 100 nM and incubated at room temperature with mixing.
Colonies were picked into a 96-well culture plate containing selective medium 2TY supplemented with 1% Glucose and 100 μg/ml Carbenicillin and was incubated at 37° C. until wells reached mid-log phase of growth prior to addition of M13K07 helper phage. The block was incubated without shaking for 1 hour to achieve infection and phage production using continued culture in selective media supplemented with 50 μg/ml Kanamycin and 100 μg/ml Carbenicillin.
Binding to antigen was assessed by monoclonal phage ELISA, 96-well flat bottom Nunc MaxiSorp plates (Thermofisher) were coated with a 2.5 μg/ml solution of human, mouse, or rat serum albumin, human C5 or mouse C5 diluted with PBS, and left overnight at 4° C. Negative control plate and Anti-myc tag plate were also prepared.
Monoclonal phage rescue supernatants were blocked with an equal volume of a 2% milk (w/v) in PBS, for serum albumin proteins, or 2% BSA and 2% milk (w/v) in PBS solution. The coating solution was removed from coated Nunc plates and each plate was blocked with 1% BSA in PBS (for C5 libraries) or 1% milk powder (for albumin library). Both phage and Nunc plates were blocked for 1 hour at room temperature. Nunc plates were washed using a 96-well microplate washer (BioTek) with a PBS solution contain 0.1% Tween20 (Sigma Aldrich). 100 of blocked phage solution was added to each well of Nunc MaxiSorp plate and left shaking at room temperature for 1 hour. Plates were washed and dried as previously described. 100 of an Anti-M13-Horse radish peroxidase conjugated antibody (GE Healthcare) diluted (1:5,000) in a 1% BSA or milk solution was added to each well and left shaking at room temperature for 1 hour. Plates were washed again and 50 μL of TMB solution (Merck Millipore) was added to each well. Plates were left shaking for 10 minutes. Absorbance was measured at 630 nm and 490 nm. Binding signals were obtained where Absorbance at 630 nm was >3-times the signal upon irrelevant antigen.
By monoclonal phage ELISA the following ultralong CDR-H3 sequences were identified as binders (OD>0.2 AU): […]

[1] = anti-C5 ultralong CDR-H3, binder = OD>0.2 AU
[2] = knob domain of the anti-C5 ultralong CDR-H3

Sequence of C5 (P01031 19-1676): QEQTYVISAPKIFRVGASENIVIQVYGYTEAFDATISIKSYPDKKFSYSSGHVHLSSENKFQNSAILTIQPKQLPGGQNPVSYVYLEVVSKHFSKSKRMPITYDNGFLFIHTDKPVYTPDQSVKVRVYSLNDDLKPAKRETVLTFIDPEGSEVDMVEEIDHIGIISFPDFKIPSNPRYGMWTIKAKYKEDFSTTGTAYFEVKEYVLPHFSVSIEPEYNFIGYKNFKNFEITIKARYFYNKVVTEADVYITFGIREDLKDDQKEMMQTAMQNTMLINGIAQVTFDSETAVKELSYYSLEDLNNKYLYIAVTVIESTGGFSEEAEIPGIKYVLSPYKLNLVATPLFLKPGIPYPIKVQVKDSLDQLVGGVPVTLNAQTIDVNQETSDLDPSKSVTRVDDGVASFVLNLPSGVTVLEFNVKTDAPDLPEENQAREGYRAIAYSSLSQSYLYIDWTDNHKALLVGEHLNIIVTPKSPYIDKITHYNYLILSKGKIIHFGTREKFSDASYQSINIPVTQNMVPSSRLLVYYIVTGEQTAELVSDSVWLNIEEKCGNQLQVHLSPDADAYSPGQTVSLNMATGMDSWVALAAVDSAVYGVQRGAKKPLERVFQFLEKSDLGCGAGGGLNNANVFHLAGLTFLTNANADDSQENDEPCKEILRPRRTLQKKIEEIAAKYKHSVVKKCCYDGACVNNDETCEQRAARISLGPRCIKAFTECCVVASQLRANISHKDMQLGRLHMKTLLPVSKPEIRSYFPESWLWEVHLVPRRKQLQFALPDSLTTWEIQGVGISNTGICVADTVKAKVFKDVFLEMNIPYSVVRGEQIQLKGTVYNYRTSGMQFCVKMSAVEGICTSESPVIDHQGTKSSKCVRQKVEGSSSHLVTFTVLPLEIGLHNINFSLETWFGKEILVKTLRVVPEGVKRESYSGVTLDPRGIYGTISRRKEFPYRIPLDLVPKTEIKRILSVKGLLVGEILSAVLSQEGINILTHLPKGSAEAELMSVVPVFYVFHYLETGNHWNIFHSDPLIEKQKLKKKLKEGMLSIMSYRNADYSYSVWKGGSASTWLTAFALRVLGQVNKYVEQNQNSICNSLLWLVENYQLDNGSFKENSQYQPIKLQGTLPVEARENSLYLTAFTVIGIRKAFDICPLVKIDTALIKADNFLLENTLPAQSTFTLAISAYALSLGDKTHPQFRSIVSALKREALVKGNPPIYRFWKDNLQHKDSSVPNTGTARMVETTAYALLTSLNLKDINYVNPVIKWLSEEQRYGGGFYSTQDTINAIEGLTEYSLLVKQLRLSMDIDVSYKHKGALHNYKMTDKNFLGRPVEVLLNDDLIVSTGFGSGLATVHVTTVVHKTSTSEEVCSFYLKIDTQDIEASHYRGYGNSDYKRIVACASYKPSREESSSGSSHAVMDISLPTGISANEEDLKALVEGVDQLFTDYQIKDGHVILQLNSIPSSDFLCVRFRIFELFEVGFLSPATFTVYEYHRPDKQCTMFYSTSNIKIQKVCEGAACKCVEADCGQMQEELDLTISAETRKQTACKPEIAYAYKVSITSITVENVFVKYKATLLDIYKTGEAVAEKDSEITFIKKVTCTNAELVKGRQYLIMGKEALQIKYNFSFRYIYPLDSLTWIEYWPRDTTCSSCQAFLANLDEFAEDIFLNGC

## 541 (TTVHQRTIKSGCPPGYKSGVDCSPGSECKWGCYAVDGRRYGGYGADSGVGSTYTHEYHVE; Anti-C5 ultralong CDR-H3) [compound 541]
[1]
  Specificity: Human

## 543 (TTVHQRTLKNRNCPDGYGYQRHCTVGEDCTDHCCDAYGLCTSYTYTYTYEWYVD; Anti-C5 ultralong CDR-H3) [compound 543]
[1]
  Specificity: Human

## 544 (TTVHQRTLKNRNCPDGYGYQRHCTVGEDCTDSCCDRYGLCTTSTETYTYELYVE; Anti-C5 ultralong CDR-H3) [compound 544]
[1]
  Specificity: Human

## 545 (TTVHQRTLKNRNRPEGYGYQRHCTVGEECTDSCCDRYGLCTTSTETYTYEWYVD; Anti-C5 ultralong CDR-H3) [compound 545]
[1]
  Specificity: Human

## 546 (TTVHQRTKKTCPLGYDLNDRCDHFNTCRVEECCKNGVVNAYGICEYAGGSATYTYEWYVE; Anti-C5 ultralong CDR-H3) [compound 546]
[1]
  Specificity: Human

## 547 (TTVHQRTLKNRNCPDGYGYQRHCTVGEDCTDSCCDRYGLCTTSTETYTYEFYVN; Anti-C5 ultralong CDR-H3) [compound 547]
[1]
  Specificity: Human

## 548 (TTVHQRTLKNRNCPDGYGYQRHCTVGEDCTDSCCDRYGLCTTSTETYTYEWYVD; Anti-C5 ultralong CDR-H3) [compound 548]
[1]
  Specificity: Human

## 549 (TTVHQRTLKNRNCPDGYGYQRHCTVGEDCTDSCCDRYGLCTTSTETYTYEWYVD; Anti-C5 ultralong CDR-H3) [compound 549]
[1]
  Specificity: Human

## 550 (TTVHQRTLHNRNCPDGYGYQRHCTVGEDCTERCCDNYGLCTSYTDTYTYEFYVN; Anti-C5 ultralong CDR-H3) [compound 550]
[1]
  Specificity: Human

## 559 (TTVHQRTAKRCPSNNEDATACRYSSVCGDYVCEGLSESYAQGWGACRRYACRDSYEWYVD; Anti-C5 ultralong CDR-H3) [compound 559]
[1]
  Specificity: Human

## 560 (TTVHQRTAKRCPSNNEDATACRYSSVCGDYVCEGLSESYAQGWGACRRYACRDSYEWYVD; Anti-C5 ultralong CDR-H3) [compound 560]
[1]
  Specificity: Human

## 561 (TTVHQQTNKRRQNCPDGYEYNGFCTPDGGCSRVSNWGWDRSCISPTYTYTYEWYVE; Anti-C5 ultralong CDR-H3) [compound 561]
[1]
  Specificity: Human

## 562 (TTVHQQTTKKSSCPDGYCDCNGCGYGNGCSRGGCFDFRLYSGYSADIVVSTTYTHDFYID; Anti-C5 ultralong CDR-H3) [compound 562]
[1]
  Specificity: Human

## 565 (TTVHQRTIKSGCPPGYKSGVDCSPGSECKWGCYAVDGRRYGGYGADSGVGSTYTHELYVE; Anti-C5 ultralong CDR-H3) [compound 565]
[1]
  Specificity: Human

## 566 (TTVVQRTKRTCPEGLVYNSDQSRCCAADSGVCWEYWRGERVTRGFTYEWYVD; Anti-C5 ultralong CDR-H3) [compound 566]
[1]
  Specificity: Human

## 567 (TTVHQRTTKRCPSNNEDATACRYSSVCGDYVCEGLSESYAQGWGACRRYACRDSYEWYVD; Anti-C5 ultralong CDR-H3) [compound 567]
[1]
  Specificity: Human

## 569 (TTVHQRTAKRCPSNNEEATACRYSSVCGDYVCEGLSESYAQGWGACRRYACRDSYEWYVD; Anti-C5 ultralong CDR-H3) [compound 569]
[1]
  Specificity: Human

## 570 (TTVHQRTIKSGCPPGYKSGVDCSPGSEYKWGCYAVDGRRYGGYGADSGVGSTYTHEFYVN; Anti-C5 ultralong CDR-H3) [compound 570]
[1]
  Specificity: Human

## 571 (TTVHQRTIKSGCPPGYKSGVDCSPGSECKWGCYAVDGRRYGGYGADSGVGSTYTHEWYVD; Anti-C5 ultralong CDR-H3) [compound 571]
[1]
  Specificity: Human

## 579 (HCSPGSDCSWGCYDRDDRRVDGAGADSGLGSTST; Anti-C5 ultralong CDR-H3 knob domain) [compound 579]
[2]
  Specificity: Human

## 580 (SCPDGYKDNRFCSPDGGCSAVSHWGWDSSCVS; Anti-C5 ultralong CDR-H3 knob domain) [compound 580]
[2]
  Specificity: Human

## 581 (HCSPGSDCSWGCYDKDDRRVDGAGVASGLGST; Anti-C5 ultralong CDR-H3 knob domain) [compound 581]
[2]
  Specificity: Human

## 582 (GCPPGYKSGVDCSPGSECKWGCYAVDGRRYGGYGADSGVGST; Anti-C5 ultralong CDR-H3 knob domain) [compound 582]
[2]
  Specificity: Human

## 583 (SCPDGYHFIEPCHSGLCWREGACNGDGICANGLGRCRTVSETST; Anti-C5 ultralong CDR-H3 knob domain) [compound 583]
[2]
  Specificity: Human

## 584 (GCPTGTVAGVHCSPGSDCSWGCYDKDDRRVDGAGAASGLGST; Anti-C5 ultralong CDR-H3 knob domain) [compound 584]
[2]
  Specificity: Human

## 585 (RCPDGCFLSSYCPVGYACSGFACCDCGGYDYAGGVRGGRCSVRSTT; Anti-C5 ultralong CDR-H3 knob domain) [compound 585]
[2]
  Specificity: Human

## 586 (NCPDGYKYNGFCTPDGGCSRVSSWGWDRSCISPT; Anti-C5 ultralong CDR-H3 knob domain) [compound 586]
[2]
  Specificity: Human

## 587 (GCPPGTVAGVHCSPGSDCSWGCYDRDDRRVDGAGADSGLGSTST; Anti-C5 ultralong CDR-H3 knob domain) [compound 587]
[2]
  Specificity: Human

## 588 (SCPDGYHFIEPCHSGLCWREGACNGDGICANGLGRCRTVSETST; Anti-C5 ultralong CDR-H3 knob domain) [compound 588]
[2]
  Specificity: Human

## 589 (GCPTGTVAGVHCSPGSDCSWGCYDADDRRVDGYGADSGVGSP; Anti-C5 ultralong CDR-H3 knob domain) [compound 589]
[2]
  Specificity: Human

## 590 (NCPDGYGYQRHCTVGEDCTDHCCDAYGLCTS; Anti-C5 ultralong CDR-H3 knob domain) [compound 590]
[2]
  Specificity: Human

## 591 (NCPDGYGYQRHCTVGEDCTDSCCDRYGLCTTSTET; Anti-C5 ultralong CDR-H3 knob domain) [compound 591]
[2]
  Specificity: Human

## 592 (HCTVGEECTDSCCDRYGLCTTSTET; Anti-C5 ultralong CDR-H3 knob domain) [compound 592]
[2]
  Specificity: Human

## 593 (NCPDGYGYQRHCTVGEDCTERCCDNYGLCTSYTDT; Anti-C5 ultralong CDR-H3 knob domain) [compound 593]
[2]
  Specificity: Human

## 600 (RCPSNNEDATACRYSSVCGDYVCEGLSESYAQGWGACRRYACRDS; Anti-C5 ultralong CDR-H3 knob domain) [compound 600]
[2]
  Specificity: Human

## 601 (NCPDGYEYNGFCTPDGGCSRVSNWGWDRSCISPT; Anti-C5 ultralong CDR-H3 knob domain) [compound 601]
[2]
  Specificity: Human

## 602 (SCPDGYCDCNGCGYGNGCSRGGCFDFRLYSGYSADIVVSTT; Anti-C5 ultralong CDR-H3 knob domain) [compound 602]
[2]
  Specificity: Human

## 603 (SCPDGWGHSDDCNCACSANAYACCKRDWLLPGPSCECSTYCVS; Anti-C5 ultralong CDR-H3 knob domain) [compound 603]
[2]
  Specificity: Human

## 604 (SCPDGWSDCHGSCDGVGCTGSDCVRYNARGYGRHACSG; Anti-C5 ultralong CDR-H3 knob domain) [compound 604]
[2]
  Specificity: Human

## 605 (GCPPGYKSGVDCSPGSECKWGCYAVDGRRYGGYGADSGVGST; Anti-C5 ultralong CDR-H3 knob domain) [compound 605]
[2]
  Specificity: Human

## 606 (TCPEGLVYNSDQSRCCAADSGVCWEYWRGERVTRGFT; Anti-C5 ultralong CDR-H3 knob domain) [compound 606]
[2]
  Specificity: Human

## 607 (TCPDGYSYSEGCGKGDDCGGVHCCANGGVTCWYRHCCSTGTDT; Anti-C5 ultralong CDR-H3 knob domain) [compound 607]
[2]
  Specificity: Human

## 608 (RCPSNNEEATACRYSSVCGDYVCEGLSESYAQGWGACRRYACRDS; Anti-C5 ultralong CDR-H3 knob domain) [compound 608]
[2]
  Specificity: Human

## 609 (SGCPPGYKSGVDCSPGSEYKWGCYAVDGRRYGGYGADSGVGST; Anti-C5 ultralong CDR-H3 knob domain) [compound 609]
[2]
  Specificity: Human

From patent US20240024520A1, “AUTONOMOUS KNOB DOMAIN PEPTIDES” (UCB BIOPHARMA SRL, priority 2020, published 2024)
